Consider 4 molecules from patent publication US20080207488A1, “Method for Detecting Peptides Comprising a Cross-B Structure” (priority 2005, published 2008).

The test system of one data set is Balb/c mice. In words: Immunization of Balb/c mice with ovalbumin and amyloid-like ovalbumin. The data set is classed as in vivo. To be noted: without adjuvant. As for the experimental part: Eight to ten weeks old female Balb/c mice are immunized with OVA according to two immunization regimes (Central Animal Laboratories, Utrecht University, The Netherlands). Pre-immune serum was collected prior to the immunizations. In one regime two groups of five mice were subcutaneously injected five consecutive days per week, for three consecutive weeks. Doses comprised 10 μg native OVA or heat-denatured OVA for each injection. Alternatively, according to the second protocol, three groups of five mice were injected once intraperitoneally with doses comprising 5 μg nOVA, 5 μg OVA or 5 μg native OVA mixed 1:1 with complete Freund's adjuvant (CFA). Each week, blood was taken. After three weeks, a second dose was given. Incomplete Freund's adjuvant (IFA) was used instead of CFA. Blood was taken after one week after the start of the immunization. Antibody titers in sera were determined and sera were analyzed for the presence of cross-β structure conformation specific antibodies. For this purpose, nOVA was coated onto wells of 96-wells ELISA plates and incubated with dilution series of sera. Sera of the groups of five mice were pooled prior to the analyses. Plates were washed and subsequently incubated with peroxidase-conjugated rabbit anti-mouse immunoglobulins (RAMPO, P0260, DAKOCytomation, Glostrup, Denmark). Plates were subsequently developed with tetramethylbenzidine (TMB) substrate. […]

For data set [1], the target named is T1, human fibronectin finger 4,5 (Fn F4,5) fragment (Homo sapiens, UniProt P02751).
T1 construct: human fibronectin finger 4,5 (Fn F4,5) fragment; made in house; host or cells: HEK293E cells, transient transfection, protein purified from the medium
T1 sequence (P02751 182-276 limits assumed): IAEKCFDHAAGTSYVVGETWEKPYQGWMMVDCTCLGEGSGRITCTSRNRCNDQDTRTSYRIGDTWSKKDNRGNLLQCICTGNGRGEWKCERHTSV
Put plainly: ELISA, binding of fibronectin F4,5 to coated (mis)folded proteins. The conditions noted are these: coated protein, FIG. 7D-H. As for the experimental part:
The plates were blocked using Blocking reagent (Roche 1112589). A dilution series of the protein of interest was applied to the coated proteins and wells were subsequently washed using TBS-T (50 mM Tris pH 7.3, 150 mM NaCl and 0.1% Tween20). Bound protein is detected by the FLAG-tag using 1:3000 anti-FLAG-HRP (Sigma A-8592) in PBS-T, or by 1:1000 Ni-NTA-HRP (Qiagen 34530) in PBS-T. The HRP reaction Is performed using the TMB substrate (Biosource 4501103 or Tebu Bio 101TMB100-500), stopped using 10% H2SO4 and absorbance was measured at 450 nm.

The target in another data set is T2, tPA (Homo sapiens, UniProt P00750).
T2 construct: purchased Boehringer-Ingelheim (Actilyse, Alteplase)
T2 sequence (P00750 36-562): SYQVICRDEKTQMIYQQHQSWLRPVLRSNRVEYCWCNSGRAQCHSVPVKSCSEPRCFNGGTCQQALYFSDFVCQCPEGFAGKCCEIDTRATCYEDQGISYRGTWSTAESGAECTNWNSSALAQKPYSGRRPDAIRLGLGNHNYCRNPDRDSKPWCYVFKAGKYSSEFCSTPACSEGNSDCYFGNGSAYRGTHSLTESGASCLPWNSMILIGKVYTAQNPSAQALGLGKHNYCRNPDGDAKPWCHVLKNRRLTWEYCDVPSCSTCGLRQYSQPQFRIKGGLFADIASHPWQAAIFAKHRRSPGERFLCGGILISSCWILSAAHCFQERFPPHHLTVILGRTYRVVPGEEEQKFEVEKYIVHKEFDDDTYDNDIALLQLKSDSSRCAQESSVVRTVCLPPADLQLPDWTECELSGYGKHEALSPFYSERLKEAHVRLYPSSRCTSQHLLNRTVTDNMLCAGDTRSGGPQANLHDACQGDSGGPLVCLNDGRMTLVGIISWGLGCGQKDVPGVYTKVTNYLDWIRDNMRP
Put plainly: Plasminogen-activation assay (tPA-mediated Plg to Pls, S-2251). The data set is classed as biochemical. The conditions noted are these: 100 μg ml^−1 protein. Here is the method:
Plasmin (Pls) activity was assayed as described^7. Peptides and proteins that were tested for their stimulatory ability were regularly used at 100 μg ml^−1. […] Chromogenic substrate S-2251 (Chromogenix, Instrumentation Laboratory SpA, Milano, Italy) was used to measure Pls activity. Conversion of zymogen factor XII (#233490, Calbiochem, EMD Biosciences, Inc., San Diego, Calif.) to proteolytically active factor XII (factor XIIa) was assayed by measurement of the conversion of chromogenic substrate Chromozym-PK (Roche Diagnostics, Almere, The Netherlands) by kallikrein. Chromozym-PK was used at a concentration of 0.3 mM. Factor XII, human plasma prekallikrein (#529583, Calbiochem) and human plasma cofactor high-molecular weight kininogen (#422686, Calbiochem) were used at concentrations of 1 μg ml^−1. […] Assays were performed using microtiter plates (Costar, Cambridge, Mass., USA). Peptides and proteins were tested for their ability to activate factor XII. […] The conversion of Chromozym-PK was recorded kinetically at 37° C. for at least 60 minutes. […] With S-2222, activation of factor XII in plasma was measured, using 60% v/v plasma, diluted with substrate and H2O with or without potential cofactor. Furthermore, auto-activation of factor XII was measured by incubating 53 μg ml^−1 purified factor XII in 50 mM Tris-HCl buffer pH 7.5 with 1 mM EDTA and 0.001% v/v Triton-X100, with S-2222 and H2O with or without potential cofactor.
Formulated protein therapeutics were obtained from the local hospital pharmacy and were used as supplied by the manufacturers. […] Enhancement in fluorescence of ThT and Congo red was measured with all formulated protein therapeutics. […]
To prepare structurally altered ovalbumin (OVA) with amyloid cross-β structure conformation, purified OVA (Sigma, A-7641, lot 071k7094) was heated to 85° C. […] Native OVA (nOVA) and heat-denatured OVA (dOVA) were tested in the ThT fluorescence assay and in the Plg-activation assay. In the fluorescence assay and in the Plg-activation assay, 25 and 100 μg ml^−1 nOVA and dOVA were tested, respectively. […]

Data set [2] can be described thus: ThT fluorescence of LPS-protein mixtures. The data set is classed as physicochemical. Here is the method: (§1) Fluorescence of ThT-protein/peptide adducts was measured as follows. […] Fluorescence was measured at 485 nm upon excitation at 435 nm. Background signals from buffer, buffer with ThT and protein/peptide solution without ThT were subtracted from corresponding measurements with protein solution incubated with ThT. […] Fluorescence was measured in triplicate on a Hitachi F-4500 fluorescence spectrophotometer (Ltd., Tokyo, Japan).
Subsequently, the ability to enhance ThT fluorescence was determined with 40× diluted solution, as described above. […]

Data set [3] in a line: ThT fluorescence of CpG-ODN-protein mixtures. Type of data set: physicochemical. The conditions noted are these: for increased ThT fluorescence: 1 mg ml^−1 protein exposed to 21.4 μg ml^−1 CPG-ODN (FIG. 4F); for increase in ThT fluorescence: 1 mg ml^−1 protein, 30 min. at room temperature (FIG. 4D, E). As for the experimental part:
as §1
Enhancement of ThT fluorescence was measured similarly as described above. […]

The test system of data set [4] is anti-β2GPI auto-antibodies. In words: Interference with binding of anti-β2GPI autoantibodies to immobilized β2GPI. Also on record: species or system human. To be noted: antibodies from Anti-phospholipid syndrome patients. Here is the method:
When plasma derived β2GPI is coated onto hydrophilic ELISA plates, anti-β2GPI auto-antibodies isolated from plasma of antiphospholipid syndrome auto-immune patients can bind^14. To study the influence of co-incubations of the coated β2GPI with the antibodies together with plasma β2GPI or recombinant β2GPI, concentration series of β2GPI were added to the patient antibodies. Subsequently, binding of the antibodies to coated β2GPI was determined.

Data set [5] can be described thus: ThT fluorescence of β2GPI with or without CL vesicles or DXS500k. The data set is classed as physicochemical. As for the experimental part: ThT fluorescence of β2GPI was measured as follows. […] CL vesicles were prepared according to an established procedure. Briefly, CL was dried under a stream of nitrogen. The lipids were resuspended to a concentration of 10 mg ml^−1 in 25 mM Tris-HCl, pH 7.3, 150 mM NaCl by vigorous agitation, using a vortex. In the ThT fluorescence assay, fluorescence of β2GPI in buffer, of CL or DXS500k in buffer, of buffer and ThT alone, and of β2GPI-CL adducts and β2GPI-DXS500k adducts, with or without ThT, was recorded as described above (section ThT fluorescence). In addition, TEM images were recorded with CL, β2GPI from human plasma, with or without CL, and with recombinant β2GPI, as described^1.

[6] abbreviates: 1 mg ml^−1 protein exposed to 600 μg ml^−1 LPS (FIG. 4C).

B1: nOVA: native chicken ovalbumin (protein)
chain: GSIGAASMEFCFDVFKELKVHHANENIFYCPIAIMSALAMVYLGAKDSTRTQINKVVRFDKLPGFGDSIEAQCGTSVNVHSSLRDILNQITKPNDVYSFSLASRLYAEERYPILPEYLQCVKELYRGGLEPINFQTAADQARELINSWVESQTNGIIRNVLQPSSVDSQTAMVLVNAIVFKGLWEKAFKDEDTQAMPFRVTEQESKPVQMMYQIGLFRVASMASEKMKILELPFASGTMSMLVLLPDEVSGLEQLESIINFEKLTEWTSSNVMEERKIKVYLPRMKMEEKYNLTSVLMAMGITDVFSSSANLSGISSAESLKISQAVHAAHAEINEAGREVVGSAEAGVDAASVSEEFRADHPFLFCIKHIATNAVLFFGRCVSP
In the case of B1, in the data set on Balb/c mice, the “anti-nOVA antibody titers in pooled sera” value was “Titers were also obtained”.

B2: reduced and alkylated OVA: reduced and alkylated ovalbumin (protein)
chain: GSIGAASMEFCFDVFKELKVHHANENIFYCPIAIMSALAMVYLGAKDSTRTQINKVVRFDKLPGFGDSIEAQCGTSVNVHSSLRDILNQITKPNDVYSFSLASRLYAEERYPILPEYLQCVKELYRGGLEPINFQTAADQARELINSWVESQTNGIIRNVLQPSSVDSQTAMVLVNAIVFKGLWEKAFKDEDTQAMPFRVTEQESKPVQMMYQIGLFRVASMASEKMKILELPFASGTMSMLVLLPDEVSGLEQLESIINFEKLTEWTSSNVMEERKIKVYLPRMKMEEKYNLTSVLMAMGITDVFSSSANLSGISSAESLKISQAVHAAHAEINEAGREVVGSAEAGVDAASVSEEFRADHPFLFCIKHIATNAVLFFGRCVSP
For B2, the “affinity of fibronectin F4,5 (detection anti-FLAG HRP)” value in data set [1] is on record as “acted as its native control”.

B3: recombinant β2GPI: recombinant human β2-glycoprotein I made using insect cells (protein)
chain: GRTCPKPDDLPFSTVVPLKTFYEPGEEITYSCKPGYVSRGGMRKFICPLTGLWPINTLKCTPRVCPFAGILENGAVRYTTFEYPNTISFSCNTGFYLNGADSAKCTEEGKWSPELPVCAPIICPPPSIPTFATLRVYKPSAGNNSLYRDTAVFECLPQHAMFGNDTITCTTHGNWTKLPECREVKCPFPSRPDNGFVNYPAKPTLYYKDKATFGCHDGYSLDGPEEIECTKLGNWSAMPSCKASCKVPVKKATVVYQGERVKIQEKFKNGMLHGDKVSFFCKNKEKKCSYTEDAQCIDGTIEVPKCFKEHSSLAFWKTDASDVKPC
As to B3, the “stimulation of tPA-mediated conversion of Plg to Pls” value in the data set with tPA is on record as “stimulate tPA-mediated conversion of Plg to Pls”. Besides, the ThT fluorescence enhancement in data set [2] (setting [6]) is recorded as roughly 4 times. Also, in data set [3], the “increased ThT fluorescence” value is listed as “approximately 5 factor”. The “inhibition of binding of anti-β2GPI auto-antibodies to immobilized β2GPI” value in data set [4] was “efficiently inhibits binding”. In addition, the “ThT fluorescence after exposure to CL vesicles or DXS” value in data set [5] (25 μg ml^−1 β2GPI, 100 μM CL vesicles or 250 μg ml^−1 DXS) was “increased fluorescence of ThT”. Further, the “ThT fluorescence signal of β2GPI preparation” value in data set [5] (without CL or DXS500k) is reported as “higher ThT fluorescence signal”.

B4: endostatin: protein therapeutic endostatin (EntreMed, Inc.) (protein)
chain: HSHRDFQPVLHLVALNSPLSGGMRGIRGADFQCFQQARAVGLAGTFRAFLSSRLQDLYSIVRRADRAAVPIVNLKDELLFPSWEALFSGSEGPLKPGARIFSFDGKDVLRHPTWPQKSVWHGSDPNGRRLTESYCETWRTEAPSATGQASSLLGGRLLGQSAASCHHAYIVLCIENSFMTASK
As to B4, the “stimulation of tPA-mediated conversion of Plg to Pls” value with tPA was “absence of tPA activating properties”. Besides, the ThT fluorescence enhancement result in data set [2] (200 μg ml^−1 LPS (FIG. 4D, E)) is reported as “approximately 8 times”; in data set [2] (400 μg ml^−1 LPS (FIG. 4D, E)), roughly 20 times; in data set [2] (600 μg ml^−1 LPS (FIG. 4D, E)), roughly 26 times; in data set [2] (setting [6]) it was “approximately 10 times”. In addition, the “increased ThT fluorescence” value in data set [3] is listed as “approximately 10 factor”. Moreover, the figures for the “increase in ThT fluorescence” value in data set [3] (10.4 μg ml^−1 CPG-ODN) and in data set [3] (21.7 μg ml^−1 CPG-ODN) were roughly 39 times and roughly 56 times, respectively.
